Assay results published in the supplement of paper PMC9876800.

Tested on: peptide library, one residue held at a place counted from the S/T acceptor
Experiment: relative phosphorylation of the sub-library (ratio to the mean residue at this position); higher = residue favoured
Method in brief: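 In 384-well plates, purified recombinant kinases (human or orthologue constructs) were incubated for 90 min under kinase-specific conditions with 50 μM biotinylated degenerate peptide sub-libraries and 50 μM ATP spiked with γ-32P-ATP. Each sub-library fixed a single residue at one position around a central Ser/Thr. Relative sub-library phosphorylation, measured by phosphorimaging and densitometry of streptavidin membrane spots, is given as a ratio to the mean residue at that position.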

STK16, construct: Full length, human, sequence (O75716 whole entry, looked up): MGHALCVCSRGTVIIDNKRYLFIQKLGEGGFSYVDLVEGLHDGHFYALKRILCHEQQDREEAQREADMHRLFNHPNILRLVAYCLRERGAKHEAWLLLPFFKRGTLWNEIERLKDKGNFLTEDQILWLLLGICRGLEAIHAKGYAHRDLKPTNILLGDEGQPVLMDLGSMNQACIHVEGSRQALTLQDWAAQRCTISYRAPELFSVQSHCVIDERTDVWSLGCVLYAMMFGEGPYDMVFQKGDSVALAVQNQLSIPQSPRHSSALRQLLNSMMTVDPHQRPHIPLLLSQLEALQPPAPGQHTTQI
BMPR2, construct: aa172-end, human, sequence (Q13873 172-1038, looked up): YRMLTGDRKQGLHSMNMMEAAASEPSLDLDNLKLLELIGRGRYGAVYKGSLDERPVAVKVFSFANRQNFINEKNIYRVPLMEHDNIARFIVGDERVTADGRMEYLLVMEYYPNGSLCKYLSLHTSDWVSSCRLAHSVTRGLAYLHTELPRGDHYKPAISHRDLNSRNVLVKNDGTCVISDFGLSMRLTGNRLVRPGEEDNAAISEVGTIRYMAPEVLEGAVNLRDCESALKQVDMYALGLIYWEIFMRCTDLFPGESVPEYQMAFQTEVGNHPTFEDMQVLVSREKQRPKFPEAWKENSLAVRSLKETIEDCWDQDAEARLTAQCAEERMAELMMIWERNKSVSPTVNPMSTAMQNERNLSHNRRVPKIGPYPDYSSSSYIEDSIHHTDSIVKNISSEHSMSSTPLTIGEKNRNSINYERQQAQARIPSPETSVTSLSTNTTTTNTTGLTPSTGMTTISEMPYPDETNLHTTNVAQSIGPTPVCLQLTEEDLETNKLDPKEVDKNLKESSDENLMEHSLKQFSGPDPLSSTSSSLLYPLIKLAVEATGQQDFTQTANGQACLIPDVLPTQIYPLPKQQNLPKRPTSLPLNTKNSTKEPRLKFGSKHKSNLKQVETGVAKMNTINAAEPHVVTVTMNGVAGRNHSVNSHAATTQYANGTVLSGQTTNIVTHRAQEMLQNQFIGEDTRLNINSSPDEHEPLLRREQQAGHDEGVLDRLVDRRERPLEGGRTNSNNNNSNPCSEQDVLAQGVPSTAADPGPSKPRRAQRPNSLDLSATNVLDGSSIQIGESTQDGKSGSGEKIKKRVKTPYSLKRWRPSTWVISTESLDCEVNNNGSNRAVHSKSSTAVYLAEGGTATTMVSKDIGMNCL
CDK7, construct: Full length, human, sequence (P50613 whole entry, looked up): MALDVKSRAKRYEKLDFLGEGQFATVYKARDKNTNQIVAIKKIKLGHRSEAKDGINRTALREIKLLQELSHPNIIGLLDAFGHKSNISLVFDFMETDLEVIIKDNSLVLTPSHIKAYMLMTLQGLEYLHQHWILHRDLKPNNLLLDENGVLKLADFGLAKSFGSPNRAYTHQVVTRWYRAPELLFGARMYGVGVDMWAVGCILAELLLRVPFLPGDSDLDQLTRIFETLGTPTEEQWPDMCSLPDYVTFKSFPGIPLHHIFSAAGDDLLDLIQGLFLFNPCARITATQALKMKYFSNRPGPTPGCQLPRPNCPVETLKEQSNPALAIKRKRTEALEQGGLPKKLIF
RPS6KB2, construct: Full length, human, sequence (Q9UBS0 whole entry, looked up): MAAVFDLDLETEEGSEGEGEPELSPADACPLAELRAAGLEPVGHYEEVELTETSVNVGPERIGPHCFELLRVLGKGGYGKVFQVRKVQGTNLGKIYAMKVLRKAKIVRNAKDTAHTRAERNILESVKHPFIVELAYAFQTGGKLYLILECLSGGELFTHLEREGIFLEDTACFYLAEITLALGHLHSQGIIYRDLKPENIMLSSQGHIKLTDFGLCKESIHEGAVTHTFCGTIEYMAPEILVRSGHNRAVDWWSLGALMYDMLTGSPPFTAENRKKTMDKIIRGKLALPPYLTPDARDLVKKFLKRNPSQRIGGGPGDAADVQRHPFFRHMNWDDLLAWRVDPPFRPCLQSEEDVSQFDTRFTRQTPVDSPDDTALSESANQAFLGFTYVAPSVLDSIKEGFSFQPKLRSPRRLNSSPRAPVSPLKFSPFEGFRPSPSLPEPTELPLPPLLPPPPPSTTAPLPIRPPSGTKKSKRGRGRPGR

CDK7, construct: Full length, human (from UniProt P50613)
relative phosphorylation
Conditions | at +1 | at +2 | at +3 | at +4 | at -1 | at -2 | at -3 | at -4 | at -5
A fixed | 0.369 | 1.2 | 1.11 | 0.982 | 0.638 | 1.14 | 1.06 | 1.05 | 1.12
D fixed | 0.303 | 0.747 | 0.502 | 0.558 | 0.367 | 0.385 | 0.671 | 0.621 | 0.658
E fixed | 0.274 | 0.589 | 0.433 | 0.506 | 0.276 | 0.408 | 0.598 | 0.586 | 0.518
F fixed | 0.271 | 0.709 | 1.05 | 1 | 0.977 | 0.484 | 0.676 | 0.812 | 1.01
G fixed | 0.981 | 1.34 | 1.04 | 1.22 | 0.999 | 0.965 | 1.44 | 1.24 | 1.12
H fixed | 0.317 | 1.06 | 1.02 | 1.24 | 0.9 | 0.586 | 0.936 | 1.16 | 1.36
I fixed | 0.339 | 0.81 | 0.854 | 0.956 | 0.385 | 1.28 | 0.647 | 0.734 | 0.728
K fixed | 0.288 | 1.13 | 0.904 | 0.814 | 1.27 | 0.802 | 1.26 | 1.25 | 1.3
L fixed | 0.33 | 0.774 | 1.05 | 0.932 | 1.04 | 1.18 | 0.608 | 0.81 | 0.863
M fixed | 0.333 | 0.871 | 1.02 | 1.04 | 1.09 | 0.978 | 0.793 | 0.975 | 0.878
N fixed | 0.449 | 1.13 | 0.826 | 0.937 | 0.602 | 0.818 | 0.949 | 1.11 | 0.986
P fixed | 11.1 | 1.57 | 1.34 | 1.18 | 1.02 | 3.51 | 2 | 1.37 | 1.07
Q fixed | 0.354 | 1.04 | 0.831 | 1.07 | 0.919 | 0.781 | 1.06 | 1.03 | 0.845
R fixed | 0.294 | 1.36 | 0.624 | 0.727 | 1.56 | 1.14 | 1.87 | 1.31 | 1.22
V fixed | 0.417 | 0.9 | 1.04 | 0.878 | 0.62 | 1.3 | 0.842 | 0.681 | 0.693
W fixed | 0.304 | 0.802 | 1.32 | 1.47 | 3.04 | 0.639 | 0.774 | 1.16 | 1.49
Y fixed | 0.283 | 0.982 | 2.04 | 1.48 | 1.29 | 0.605 | 0.825 | 1.1 | 1.14
pThr fixed | 0.469 | 0.566 | 0.573 | 0.503 | 0.352 | 0.645 | 0.713 | 0.697 | 0.612
pTyr fixed | 0.357 | 0.583 | 0.641 | 0.713 | 0.475 | 0.37 | 0.568 | 0.63 | 0.522

STK16, construct: Full length, human (from UniProt O75716)
relative phosphorylation
Conditions | at +1 | at +2 | at +3 | at +4 | at -1 | at -2 | at -3 | at -4 | at -5
A fixed | 0.727 | 2.01 | 1.04 | 1 | 0.863 | 1.44 | 0.99 | 1.12 | 1.1
D fixed | 0.32 | 0.668 | 0.537 | 0.519 | 0.334 | 0.409 | 0.474 | 0.885 | 0.694
E fixed | 0.182 | 0.604 | 0.496 | 0.566 | 0.273 | 0.36 | 0.491 | 0.674 | 0.581
F fixed | 0.531 | 0.95 | 0.956 | 0.888 | 0.833 | 0.758 | 0.672 | 1.12 | 0.96
G fixed | 4.33 | 1.26 | 1.66 | 1.23 | 2.16 | 0.83 | 0.808 | 1.13 | 0.953
H fixed | 0.804 | 0.887 | 0.982 | 1.07 | 2.29 | 0.75 | 0.824 | 0.94 | 1.06
I fixed | 0.534 | 0.991 | 0.898 | 0.982 | 0.526 | 1.23 | 1.98 | 0.894 | 0.914
K fixed | 1.08 | 0.844 | 1.36 | 1.16 | 1.4 | 0.569 | 0.854 | 1.06 | 0.99
L fixed | 0.461 | 0.915 | 0.81 | 0.835 | 0.656 | 1.03 | 0.894 | 0.952 | 0.868
M fixed | 0.447 | 0.822 | 0.881 | 0.875 | 0.815 | 1.04 | 0.85 | 0.961 | 0.989
N fixed | 2.13 | 0.787 | 0.897 | 0.746 | 0.737 | 0.509 | 0.701 | 0.798 | 0.875
P fixed | 0.801 | 1.03 | 1.03 | 1.1 | 1.64 | 4.27 | 2.6 | 1.43 | 1.54
Q fixed | 0.522 | 1.19 | 0.974 | 0.999 | 0.71 | 0.676 | 0.829 | 0.849 | 0.96
R fixed | 2.08 | 1.06 | 1.73 | 1.31 | 1.19 | 0.959 | 0.963 | 1.11 | 1.49
V fixed | 0.518 | 1.06 | 0.922 | 0.845 | 0.677 | 0.88 | 1.5 | 0.963 | 0.796
W fixed | 0.999 | 0.849 | 0.853 | 1.59 | 0.813 | 0.601 | 0.74 | 1.09 | 1.13
Y fixed | 0.534 | 1.08 | 0.98 | 1.29 | 1.09 | 0.695 | 0.834 | 1.02 | 1.1
pThr fixed | 0.289 | 0.402 | 0.518 | 0.44 | 0.352 | 2.01 | 0.864 | 0.838 | 0.845
pTyr fixed | 0.242 | 0.36 | 0.605 | 0.544 | 0.276 | 0.401 | 0.468 | 0.658 | 0.65

RPS6KB2, construct: Full length, human (from UniProt Q9UBS0)
relative phosphorylation
Conditions | at +1 | at +2 | at +3 | at +4 | at -1 | at -2 | at -3 | at -4 | at -5
A fixed | 0.79 | 1.22 | 1.17 | 1 | 0.797 | 0.703 | 0.597 | 0.963 | 0.777
D fixed | 0.72 | 0.659 | 0.823 | 1.07 | 1.08 | 0.468 | 0.415 | 0.699 | 0.634
E fixed | 1.07 | 0.594 | 0.891 | 0.933 | 0.764 | 0.467 | 0.386 | 0.709 | 0.569
F fixed | 1.32 | 0.706 | 0.912 | 0.863 | 0.822 | 0.626 | 0.459 | 0.705 | 0.611
G fixed | 0.854 | 1.27 | 1.14 | 1.2 | 0.76 | 0.701 | 0.554 | 1.07 | 0.961
H fixed | 0.971 | 1.58 | 1.18 | 1.17 | 1.01 | 1.11 | 0.903 | 1.05 | 1
I fixed | 1.22 | 0.745 | 0.82 | 0.733 | 0.734 | 0.552 | 0.421 | 0.737 | 0.571
K fixed | 0.989 | 1.09 | 1.08 | 1.19 | 1.63 | 2.59 | 2.04 | 1.97 | 2.19
L fixed | 0.979 | 0.781 | 0.897 | 0.774 | 0.835 | 0.866 | 0.475 | 0.647 | 0.584
M fixed | 1.11 | 0.961 | 0.869 | 0.849 | 0.903 | 0.702 | 0.453 | 0.77 | 0.566
N fixed | 1.06 | 1.51 | 1.06 | 1.03 | 1.59 | 0.803 | 0.625 | 0.938 | 0.784
P fixed | 0.614 | 0.914 | 1.05 | 1.25 | 0.931 | 0.548 | 0.55 | 0.937 | 0.834
Q fixed | 1.13 | 1.02 | 1.17 | 1.1 | 1.03 | 0.882 | 0.731 | 1.08 | 0.945
R fixed | 0.954 | 1.52 | 1.01 | 0.973 | 1.44 | 3.95 | 6.7 | 2.31 | 3.84
V fixed | 1.09 | 0.88 | 0.849 | 0.747 | 0.855 | 0.58 | 0.425 | 0.794 | 0.607
W fixed | 0.979 | 0.776 | 1.1 | 1.16 | 0.774 | 0.674 | 0.697 | 0.828 | 0.734
Y fixed | 1.15 | 0.778 | 0.98 | 0.952 | 1.03 | 0.772 | 0.573 | 0.789 | 0.789
pThr fixed | 1.17 | 0.868 | 0.923 | 1.34 | 0.624 | 0.484 | 0.446 | 0.703 | 0.596
pTyr fixed | 1.39 | 0.96 | 1.2 | 1.32 | 1.8 | 0.552 | 0.473 | 0.767 | 0.779

BMPR2, construct: aa172-end, human (from UniProt Q13873)
relative phosphorylation
Conditions | at +1 | at +2 | at +3 | at +4 | at -1 | at -2 | at -3 | at -4 | at -5
A fixed | 0.89 | 1 | 0.941 | 0.96 | 0.845 | 0.887 | 0.99 | 1.11 | 1.08
D fixed | 0.946 | 1.13 | 0.871 | 0.94 | 0.963 | 1.86 | 1.24 | 1.1 | 1.08
E fixed | 1.08 | 1.08 | 0.844 | 0.951 | 0.944 | 1.91 | 1.19 | 1.18 | 1.04
F fixed | 0.929 | 0.88 | 0.927 | 0.94 | 1.1 | 0.825 | 0.977 | 0.973 | 1.06
G fixed | 0.969 | 1.04 | 1.1 | 1.02 | 0.839 | 1.05 | 1.08 | 1.01 | 1.06
H fixed | 1.1 | 1.04 | 1.03 | 1 | 1.01 | 0.904 | 1.08 | 0.978 | 0.96
I fixed | 1.02 | 0.889 | 0.92 | 0.868 | 0.862 | 0.728 | 0.892 | 0.911 | 0.971
K fixed | 0.831 | 1.03 | 1.04 | 1.1 | 0.822 | 0.791 | 0.835 | 0.935 | 0.913
L fixed | 1.04 | 0.905 | 0.934 | 0.935 | 1.1 | 0.786 | 0.869 | 0.928 | 0.913
M fixed | 1.15 | 0.989 | 0.93 | 0.943 | 1.24 | 0.797 | 0.955 | 0.936 | 0.895
N fixed | 1.02 | 0.987 | 1.01 | 0.963 | 0.968 | 1.05 | 1.03 | 0.938 | 0.898
P fixed | 0.724 | 1.02 | 1.17 | 1.08 | 0.738 | 0.809 | 0.965 | 1.09 | 0.948
Q fixed | 1.04 | 1.01 | 0.949 | 0.973 | 0.986 | 1.15 | 1.04 | 0.919 | 0.861
R fixed | 0.933 | 1 | 1.22 | 1.18 | 0.905 | 0.816 | 0.873 | 0.867 | 0.956
V fixed | 0.999 | 0.972 | 0.989 | 0.926 | 1.03 | 0.822 | 0.862 | 0.979 | 1.01
W fixed | 1.1 | 0.94 | 0.998 | 1.16 | 1.24 | 0.855 | 1.03 | 1.05 | 1.18
Y fixed | 1.24 | 1.1 | 1.12 | 1.05 | 1.4 | 0.95 | 1.11 | 1.09 | 1.18
pThr fixed | 1.02 | 1.04 | 0.847 | 0.873 | 0.862 | 0.993 | 1.15 | 1.08 | 0.979
pTyr fixed | 0.907 | 0.891 | 0.883 | 0.86 | 1.56 | 1.06 | 1.34 | 1.1 | 1.07
